# Measurements taken from US20060015973, “Environmental stress-tolerant plants” (Independent Admin. Institute, Japan International Research …, published 2006).
# Where a chain is given by its changes, count along the chain named.
# B1: rd29A promoter 71 bp DRE probe (wild type) (dsDNA)
# DNA 1: CAGTTTGAAAGAAAAGGGAAAAAAAGAAAAAATAAATAAAAGATATACTACCGACATGAGTTCCAAAAAGC
# DNA 2: GCTTTTTGGAACTCATGTCGGTAGTATATCTTTTATTTATTTTTTCTTTTTTTCCCTTTTCTTTCAAACTG
# B2: DRE-containing 71 bp rd29A region in GUS reporter (3 tandem copies) (dsDNA)
# DNA 1: B1 DNA 1
# DNA 2: B1 DNA 2
# B3: 71 bp probe, mutated outside DRE (SEQ 22) (dsDNA)
# DNA 1: B1 DNA 1 with G60T, T61C, T62A, C63A
# DNA 2: B1 DNA 2 with G9T, A10T, A11G, C12A
# B4: 71 bp probe, DRE mutant (SEQ 19) (dsDNA)
# DNA 1: B1 DNA 1 with C48T, A50T, C51T
# DNA 2: B1 DNA 2 with G21A, T22A, G24A
# B5: 71 bp probe, DRE mutant (SEQ 20) (dsDNA)
# DNA 1: B1 DNA 1 with C52T, G53T, A54T, C55T
# DNA 2: B1 DNA 2 with G17A, T18A, C19A, G20A
# B6: 71 bp probe, DRE mutant (SEQ 21) (dsDNA)
# DNA 1: B1 DNA 1 with T57A, G58A
# DNA 2: B1 DNA 2 with C14T, A15T
# B7: 71 bp probe, mutated outside DRE (SEQ 23) (dsDNA)
# DNA 1: B1 DNA 1 with C64G, A65G, A66T, A67T
# DNA 2: B1 DNA 2 with T5A, T6A, T7C, G8C
# Columns and labels:
# [1] = biological target: T1, GST-DREB1A (fragment encoded by cDNA nt 119-547) (Arabidopsis thaliana, UniProt Q9M0L0 SEQ:1-143); experiment: EMSA; room temperature 20 min; 6% gel 0.25x TBE; settings: tags: N-terminal GST (pGEX-4T-1), E. coli JM109; label: 32P
# Method: (§1) E. coli in which the fusion protein had been induced was suspended in 13 ml of buffer (10 mM Tris-HCl, 0.1 mM DTT, 0.1 mM phenylmethylsulfonyl fluoride). Then, 1% Triton X-100 and 1 mM EDTA were added thereto. After the cells were disrupted by sonication, the disrupted material was centrifuged at 22,000×g for 20 min. Then, the fusion protein of DREB1A (or DREB2A) and GST was purified by affinity chromatography using glutathione-Sepharose (Pharmacia) as a carrier. The resultant fusion protein was incubated with the DRE-containing 71 bp DNA fragment probe prepared by PCR and radiolabelled with ³²P at room temperature for 20 min. This mixture was electrophoresed using 6% acryl amide gel containing 0.25× Tris-borate-EDTA at 100 V for 2 hr. […] As is clear from this Figure, a band which migrated behind was detected when the fusion protein was incubated with the DRE-containing 71 bp DNA fragment probe (SEQ ID NO: 18). When a DNA fragment containing a varied DRE sequence (SEQ ID NO: 19, 20 or 21) was used, such a band was not detected. On the other hand, when a DNA fragment which was partly varied outside of DRE sequence (SEQ ID NO: 22 or 23) was used as a probe, a behind band was detected. Thus, it was shown that DREB1A or DREB2A protein specifically bound to DRE sequence.
# [2] = biological target: T2, GST-DREB2A (fragment encoded by cDNA nt 167-666) (Arabidopsis thaliana, UniProt O82132 SEQ:1-166); experiment: EMSA; room temperature 20 min; 6% gel 0.25x TBE; settings: tags: N-terminal GST (pGEX-4T-1), E. coli JM109; label: 32P
# Method: as §1
# [3] = biological target: DREB2A delta136-165 (constitutive active form) (Arabidopsis thaliana, UniProt O82132 SEQ:1-335, del136-165); experiment: cell_activity; GUS transactivation vs basal, T87 protoplasts; >3x full length
# Method: Isolation of Arabidopsis T87 cell protoplasts and polyethylene glycol-mediated DNA transfection were performed as described previously (Abel and Theologis, 1994 Plant J. 5, 421-427). Five-day-old Arabidopsis T87 suspension cultured cells were collected by filtration and washed with water. Five grams of T87 cells were incubated with enzyme solution (0.4M mannitol, 5 mM MES-KOH (pH 5.7), 8 mM CaCl₂, 1% [w/v] Cellulase ONOZUKA R10 (Yakult), 0.5% [w/v] Macerozyme R10 (Yakult)) at room temperature for 2 hours with gentle agitation. Cells were passed through 125 μm nylon mesh, recovered by centrifugation at 450 g for 5 minutes at room temperature and washed twice in 30 ml of […], 70 mM CaCl₂, and 5 mM MES-KOH (pH 5.7). Finally protoplasts were resuspended in MaMg solution (0.4 M mannitol, 15 mM MgCl₂, 5 mM MES-KOH (pH 5.7)) and concentration was adjusted to 3×10⁶ cell/ml. The isolated protoplasts were kept on ice until use. Plasmid DNAs used for protoplast transformation were prepared by using a QINGEN plasmid isolation kit (QIAGEN) and dissolved in 10 mM Tris-HCl (pH 8.0), and 1 mM EDTA at 1 μg/μL. One hundred μL of protoplast suspension was mixed well with 10 μL of effector plasmid, 10 μL of reporter plasmid and 5 μL of 35S:Luciferase internal control plasmid. […]
# [4] = biological target: T1, GST-DREB1A (fragment encoded by cDNA nt …); experiment: EMSA; shifted band; settings: tags: N-terminal GST (pGEX-4T-1), E. coli JM109; label: 32P
# Method: as §1
# [5] = biological target: T2, GST-DREB2A (fragment encoded by cDNA nt …); experiment: EMSA; shifted band; settings: tags: N-terminal GST (pGEX-4T-1), E. coli JM109; label: 32P
# Method: as §1
# [6] = biological target: T1, GST-DREB1A (fragment encoded by cDNA nt …); experiment: EMSA; no shifted band; settings: tags: N-terminal GST (pGEX-4T-1), E. coli JM109; label: 32P
# Method: as §1
# [7] = biological target: T2, GST-DREB2A (fragment encoded by cDNA nt …); experiment: EMSA; no shifted band; settings: tags: N-terminal GST (pGEX-4T-1), E. coli JM109; label: 32P
# Method: as §1
# T2 sequence (O82132 1-166): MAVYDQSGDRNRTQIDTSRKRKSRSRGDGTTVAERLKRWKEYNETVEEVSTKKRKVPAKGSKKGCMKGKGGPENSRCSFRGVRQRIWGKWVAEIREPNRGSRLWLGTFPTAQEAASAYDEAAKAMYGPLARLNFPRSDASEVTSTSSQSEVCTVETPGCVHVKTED
# T1 sequence (Q9M0L0 1-143): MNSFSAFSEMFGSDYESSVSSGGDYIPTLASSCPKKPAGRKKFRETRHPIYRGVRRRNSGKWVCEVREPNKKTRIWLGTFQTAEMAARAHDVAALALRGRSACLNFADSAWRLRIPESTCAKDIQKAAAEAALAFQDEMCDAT
# Chain of DREB2A delta136-165 (constitutive active form) (O82132 other isoform, or with tags, fused parts or gaps del136-165 | mutant): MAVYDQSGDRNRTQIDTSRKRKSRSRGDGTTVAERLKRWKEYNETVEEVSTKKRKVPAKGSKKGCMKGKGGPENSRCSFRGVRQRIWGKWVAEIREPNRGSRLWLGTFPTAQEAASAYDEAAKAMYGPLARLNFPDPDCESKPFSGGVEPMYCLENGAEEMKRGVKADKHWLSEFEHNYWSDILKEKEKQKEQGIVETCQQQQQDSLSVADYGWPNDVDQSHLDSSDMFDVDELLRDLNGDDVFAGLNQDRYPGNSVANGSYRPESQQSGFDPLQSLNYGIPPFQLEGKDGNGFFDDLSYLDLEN
binder,measurement,setting,value
B1,binding result,[1],binds
same,binding result,[2],binds
B2,activity,[3],> 30 fold
B3,binding result,[4],binds
same,binding result,[5],binds
B4,binding result,[6],no binding
same,binding result,[7],no binding
B5,binding result,[6],no binding
same,binding result,[7],no binding
B6,binding result,[6],no binding
same,binding result,[7],no binding
B7,binding result,[4],binds
same,binding result,[5],binds
